# Biological target: nef_hv1a2 nef (UniProt P03407)
# Sequence (P03407 whole entry): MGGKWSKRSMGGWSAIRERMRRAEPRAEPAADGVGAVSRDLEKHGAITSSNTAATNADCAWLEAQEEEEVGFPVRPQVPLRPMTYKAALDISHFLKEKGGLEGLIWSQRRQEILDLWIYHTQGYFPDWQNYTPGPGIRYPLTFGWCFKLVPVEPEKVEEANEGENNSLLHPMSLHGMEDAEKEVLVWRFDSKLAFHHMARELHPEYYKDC
substance,measurement,value
T-cell surface glycoprotein CD4 (Homo sapiens) (from UniProt P01730) L438A;L439A,effect of a mutation on the interaction,disrupting interaction strength

# From IntAct's records for PubMed 11264384
